Data on 2 molecules can be found in article PMC7351759, “Nuclear moonlighting of cytosolic glyceraldehyde-3-phosphate dehydrogenase regulates Arabidopsis response to heat stress” (Nature Communications, 2020).

What all share (conditions): both partners purified
The experiment “GAPC1-Flag (cytosolic …)” deals with T1, GAPC1-Flag (cytosolic glyceraldehyde-3-phosphate dehydrogenase 1) (Arabidopsis, UniProt P25858 1-338).
T1 construct: Cytosolic glyceraldehyde-3-phosphate dehydrogenase GAPC1 of Arabidopsis; CaMV-35S promoter; source: Arabidopsis overexpressing GAPC1-Flag, purified with an anti-Flag antibody and Protein A-agarose
The experiment is described as follows: co-IP; GAPC1-Flag or GAPC2-Flag purified from Arabidopsis mixed with purified NF-YC10-6xHis; IP with anti-Flag antibody and Protein A-agarose, overnight at 4 °C, buffer A (20 mM NaH2PO4 pH 8.0, 150 mM NaCl); blot with anti-6xHis antibody.

For the experiment “GAPC2-Flag (cytosolic …)”, the target named is T2, GAPC2-Flag (cytosolic glyceraldehyde-3-phosphate dehydrogenase 2) (Arabidopsis, UniProt Q9FX54 1-338).
T2 construct: Cytosolic glyceraldehyde-3-phosphate dehydrogenase GAPC2 of Arabidopsis; CaMV-35S promoter; source: Arabidopsis overexpressing GAPC2-Flag, purified with an anti-Flag antibody and Protein A-agarose
Described as above.

The next experiment addresses T3, GAPC2-6xHis (Arabidopsis, UniProt Q9FX54 1-338).
T3 construct: Cytosolic glyceraldehyde-3-phosphate dehydrogenase GAPC2 of Arabidopsis; source: purified
The experiment is described as follows: co-IP; purified GAPC2-6xHis or GAPC2mut’-6xHis mixed with NF-YC10-6xHis-STREP; IP with anti-STREP antibody, blot with anti-6xHis antibody.

T2 sequence (Q9FX54 whole entry): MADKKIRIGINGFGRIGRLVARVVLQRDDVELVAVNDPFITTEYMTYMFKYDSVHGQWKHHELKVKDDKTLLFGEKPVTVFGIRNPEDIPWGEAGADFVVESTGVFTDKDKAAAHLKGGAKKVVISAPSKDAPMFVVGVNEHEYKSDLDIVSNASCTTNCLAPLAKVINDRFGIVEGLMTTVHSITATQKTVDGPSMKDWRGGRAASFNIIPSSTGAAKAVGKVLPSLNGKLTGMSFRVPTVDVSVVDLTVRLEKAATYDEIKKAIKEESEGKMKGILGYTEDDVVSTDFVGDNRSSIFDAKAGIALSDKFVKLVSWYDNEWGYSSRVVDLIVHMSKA
T3 sequence (Q9FX54 whole entry): as above
T1 sequence (P25858 whole entry): as the sequence (Q9FX54 whole entry) above, with H61N, V65I, D68E, G92A, F98Y, S227A, M274L counted along it

B1: NF-YC10-6xHis (natural protein, Arabidopsis, UniProt Q58CM8 1-195, looked up)
chain: MRRPKSSHVRMEPVAPRSHNTMPMLDQFRSNHPETSKIEGVSSLDTALKVFWNNQREQLGNFAGQTHLPLSRVRKILKSDPEVKKISCDVPALFSKACEYFILEVTLRAWMHTQSCTRETIRRCDIFQAVKNSGTYDFLIDRVPFGPHCVTHQGVQPPAEMILPDMNVPIDMDQIEEENMMEERSVGFDLNCDLQ
notes: Nuclear factor Y subunit C10, cloned from Arabidopsis; also called recombinant NF-YC10
In the case of B1, the binding result with GAPC1-Flag (cytosolic …) and in the experiment with GAPC2-Flag (cytosolic …) was “binds” in each case.

B2: NF-YC10-6xHis-STREP (natural protein, Arabidopsis, UniProt Q58CM8 1-195, looked up)
chain: B1 chain
notes: Nuclear factor Y subunit C10 of Arabidopsis
Turning to B2, in the experiment with GAPC2-6xHis, the binding result is “binds”.
